Source: article PMC3236591, “Central domain deletions affect the SAXS solution structure and function of Yeast Hsp40 proteins Sis1 and Ydj1” (BMC Structural Biology, 2011)

Assays:
[1] = biological target: the molecule itself; assay: SAXS; 2.75 to 7.1 mg/mL protein in 25 mM Tris-HCl pH 7.5, 500 mM NaCl; molecular mass from I(0) against a BSA standard
heated luciferase = biological target: T1, heated luciferase (UniProt P08659 1-550 = luciferase); assay: not stated; binding of Hsp40s to heated denatured luciferase as previously described (refs 15, 21); Sis1 binding set as standard (100%)
T1 construct: luciferase, heat-denatured, used as client protein; Heat-denatured in the assay; Firefly luciferase is surmised; also called heated denaturated luciferase; denatured luciferase
T1 sequence (P08659 whole entry): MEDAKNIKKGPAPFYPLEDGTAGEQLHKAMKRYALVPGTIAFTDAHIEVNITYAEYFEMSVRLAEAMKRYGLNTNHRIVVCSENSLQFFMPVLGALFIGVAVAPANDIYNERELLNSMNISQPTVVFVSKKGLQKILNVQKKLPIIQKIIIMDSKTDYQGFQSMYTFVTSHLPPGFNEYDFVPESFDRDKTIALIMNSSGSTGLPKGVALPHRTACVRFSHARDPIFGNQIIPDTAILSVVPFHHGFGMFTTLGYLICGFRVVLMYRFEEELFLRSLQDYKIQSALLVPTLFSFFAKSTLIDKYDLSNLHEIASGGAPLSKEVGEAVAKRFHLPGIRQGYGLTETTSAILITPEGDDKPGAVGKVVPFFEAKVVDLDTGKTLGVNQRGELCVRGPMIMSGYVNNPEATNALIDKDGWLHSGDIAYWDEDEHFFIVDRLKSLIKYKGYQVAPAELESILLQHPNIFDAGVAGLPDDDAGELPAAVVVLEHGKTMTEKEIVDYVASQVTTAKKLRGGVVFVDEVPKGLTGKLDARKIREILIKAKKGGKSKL

B1: Sis1_Δ124-174 (natural protein, yeast, UniProt P25294 1-352, looked up)
chain: MVKETKLYDLLGVSPSANEQELKKGYRKAALKYHPDKPTGDTEKFKEISEAFEILNDPQKREIYDQYGLEAARSGGPSFGPGGPGGAGGAGGFPGGAGGFSGGHAFSNEDAFNIFSQFFGGSSTYPEEETVQVNLPVSLEDLFVGKKKSFKIGRKGPHGASEKTQIDIQLKPGWKAGTKITYKNQGDYNPQTGRRKTLQFVIQEKSHPNFKRDGDDLIYTLPLSFKESLLGFSKTIQTIDGRTLPLSRVQPVQPSQTSTYPGQGMPTPKNPSQRGNLIVKYKVDYPISLNDAQKRAIDENF
notes: Sis1, yeast Type II Hsp40 (352 residues), residues 124 to 174 (G/M region) deleted; also called Sis1 G/M deletion mutant; source: E. coli BL21(DE3)pLys, purified (Macro-prep High S cation exchange, hydroxyapatite)
stoichiometry N [1]: 2 | percent of Sis1 binding to heated luciferase (heated luciferase): ~60%

B2: Sis1_Δ121-257 (natural protein, yeast, UniProt P25294 1-352, looked up)
chain: MVKETKLYDLLGVSPSANEQELKKGYRKAALKYHPDKPTGDTEKFKEISEAFEILNDPQKREIYDQYGLEAARSGGPSFGPGGPGGAGGAGGFPGGAGGFSGGHAFSNEDAFNIFSQFFGHPNFKRDGDDLIYTLPLSFKESLLGFSKTIQTIDGRTLPLSRVQPVQPSQTSTYPGQGMPTPKNPSQRGNLIVKYKVDYPISLNDAQKRAIDENF
notes: Sis1, yeast Type II Hsp40 (352 residues), residues 121 to 257 (G/M and CTDI) deleted; also called Sis1 G/M plus CTDI deletion mutant; source: E. coli BL21(DE3)pLys, purified (Macro-prep High S cation exchange, hydroxyapatite)
stoichiometry N [1]: 2 | percent of Sis1 binding to heated luciferase (heated luciferase): ~40%

B3: Ydj1_Δ106-255 (natural protein)
chain: not shown
notes: Ydj1, yeast Type I Hsp40 (409 residues), residues 106 to 255 (ZFLR and CTDI) deleted; also called Ydj1 ZFLR plus CTDI deletion mutant; source: E. coli BL21(DE3), purified (Macro-prep High Q anion exchange, hydroxyapatite, Superdex 200 SEC)
stoichiometry N [1]: 2 | percent of Sis1 binding to heated luciferase (heated luciferase): ~40%

B4: Sis1 (natural protein, yeast, UniProt P25294 1-352, looked up)
chain: MVKETKLYDLLGVSPSANEQELKKGYRKAALKYHPDKPTGDTEKFKEISEAFEILNDPQKREIYDQYGLEAARSGGPSFGPGGPGGAGGAGGFPGGAGGFSGGHAFSNEDAFNIFSQFFGGSSPFGGADDSGFSFSSYPSGGGAGMGGMPGGMGGMHGGMGGMPGGFRSASSSPTYPEEETVQVNLPVSLEDLFVGKKKSFKIGRKGPHGASEKTQIDIQLKPGWKAGTKITYKNQGDYNPQTGRRKTLQFVIQEKSHPNFKRDGDDLIYTLPLSFKESLLGFSKTIQTIDGRTLPLSRVQPVQPSQTSTYPGQGMPTPKNPSQRGNLIVKYKVDYPISLNDAQKRAIDENF
notes: Sis1, yeast Type II Hsp40, 352 residues (J-domain, G/F, G/M, CTDI, CTDII); also called Type II Hsp40; full length Sis1 protein; source: recombinant, purified (Macro-prep High S cation exchange, hydroxyapatite)
stoichiometry N [1]: 2
